In US20220213181A1 (Novartis, published 2022):
Values belong to the binder of their own block, whether it stands above or below them.

What was measured:
Assay in all cases: linear peptide array on glass (JPT)
P1 = target: T1, P1 (human)
T1 construct: linear 15-mer from the N-terminal coiled coil domain of human ANGPTL4
T1 peptide: GPVQSKSPRFASWDE
Procedure: (§1) The ability of selected antibodies of invention, namely NEG276 and NEG318, to bind to linear 15-amino-acid peptides derived from the N-terminal coiled coil domain of human ANGPTL4 was tested. The peptides were immobilized on a glass surface, and the ability of NEG276 and NEG318 to bind to the immobilized peptides was evaluated using experimental methods optimized for linear peptide epitope mapping at JPT Peptide Technologies (Berlin, Germany).

P2 = target: T2, P2 (human)
T2 construct: linear 15-mer from the N-terminal coiled coil domain of human ANGPTL4
T2 peptide: QSKSPRFASWDEMNV
Procedure: as §1

P3 = target: T3, P3 (human)
T3 construct: linear 15-mer from the N-terminal coiled coil domain of human ANGPTL4
T3 peptide: SPRFASWDEMNVLAH
Procedure: as §1

P4 = target: T4, P4 (human)
T4 construct: linear 15-mer from the N-terminal coiled coil domain of human ANGPTL4
T4 peptide: FASWDEMNVLAHGLL
Procedure: as §1

P5 = target: T5, P5 (human)
T5 construct: linear 15-mer from the N-terminal coiled coil domain of human ANGPTL4
T5 peptide: WDEMNVLAHGLLQLG
Procedure: as §1

P6 = target: T6, P6 (human)
T6 construct: linear 15-mer from the N-terminal coiled coil domain of human ANGPTL4
T6 peptide: MNVLAHGLLQLGQGL
Procedure: as §1

P7 = target: T7, P7 (human)
T7 construct: linear 15-mer from the N-terminal coiled coil domain of human ANGPTL4
T7 peptide: LAHGLLQLGQGLREH
Procedure: as §1

P8 = target: T8, P8 (human)
T8 construct: linear 15-mer from the N-terminal coiled coil domain of human ANGPTL4
T8 peptide: GLLQLGQGLREHAER
Procedure: as §1

P9 = target: T9, P9 (human)
T9 construct: linear 15-mer from the N-terminal coiled coil domain of human ANGPTL4
T9 peptide: QLGQGLREHAERTRS
Procedure: as §1

P11 = target: T10, P11 (human)
T10 construct: linear 15-mer from the N-terminal coiled coil domain of human ANGPTL4
T10 peptide: REHAERTRSQLSALE
Procedure: as §1

P12 = target: T11, P12 (human)
T11 construct: linear 15-mer from the N-terminal coiled coil domain of human ANGPTL4
T11 peptide: AERTRSQLSALERRL
Procedure: as §1

P13 = target: T12, P13 (human)
T12 construct: linear 15-mer from the N-terminal coiled coil domain of human ANGPTL4; printed with Ser where ANGPTL4 has Cys
T12 peptide: TRSQLSALERRLSAS
Procedure: as §1

P14 = target: T13, P14 (human)
T13 construct: linear 15-mer from the N-terminal coiled coil domain of human ANGPTL4; printed with Ser where ANGPTL4 has Cys
T13 peptide: QLSALERRLSASGSA
Procedure: as §1

P15 = target: T14, P15 (human)
T14 construct: linear 15-mer from the N-terminal coiled coil domain of human ANGPTL4; printed with Ser where ANGPTL4 has Cys
T14 peptide: ALERRLSASGSASQG
Procedure: as §1

P16 = target: T15, P16 (human)
T15 construct: linear 15-mer from the N-terminal coiled coil domain of human ANGPTL4; printed with Ser where ANGPTL4 has Cys
T15 peptide: RRLSASGSASQGTEG
Procedure: as §1

P17 = target: T16, P17 (human)
T16 construct: linear 15-mer from the N-terminal coiled coil domain of human ANGPTL4; printed with Ser where ANGPTL4 has Cys
T16 peptide: SASGSASQGTEGSTD
Procedure: as §1

P18 = target: T17, P18 (human)
T17 construct: linear 15-mer from the N-terminal coiled coil domain of human ANGPTL4; printed with Ser where ANGPTL4 has Cys
T17 peptide: GSASQGTEGSTDLPL
Procedure: as §1

P19 = target: T18, P19 (human)
T18 construct: linear 15-mer from the N-terminal coiled coil domain of human ANGPTL4; printed with Ser where ANGPTL4 has Cys
T18 peptide: SQGTEGSTDLPLAPE
Procedure: as §1

P20 = target: T19, P20 (human)
T19 construct: linear 15-mer from the N-terminal coiled coil domain of human ANGPTL4
T19 peptide: TEGSTDLPLAPESRV
Procedure: as §1

P21 = target: T20, P21 (human)
T20 construct: linear 15-mer from the N-terminal coiled coil domain of human ANGPTL4
T20 peptide: STDLPLAPESRVDPE
Procedure: as §1

P22 = target: T21, P22 (human)
T21 construct: linear 15-mer from the N-terminal coiled coil domain of human ANGPTL4
T21 peptide: LPLAPESRVDPEVLH
Procedure: as §1

P23 = target: T22, P23 (human)
T22 construct: linear 15-mer from the N-terminal coiled coil domain of human ANGPTL4
T22 peptide: APESRVDPEVLHSLQ
Procedure: as §1

P24 = target: T23, P24 (human)
T23 construct: linear 15-mer from the N-terminal coiled coil domain of human ANGPTL4
T23 peptide: SRVDPEVLHSLQTQL
Procedure: as §1

P25 = target: T24, P25 (human)
T24 construct: linear 15-mer from the N-terminal coiled coil domain of human ANGPTL4
T24 peptide: DPEVLHSLQTQLKAQ
Procedure: as §1

P26 = target: T25, P26 (human)
T25 construct: linear 15-mer from the N-terminal coiled coil domain of human ANGPTL4
T25 peptide: VLHSLQTQLKAQNSR
Procedure: as §1

P27 = target: T26, P27 (human)
T26 construct: linear 15-mer from the N-terminal coiled coil domain of human ANGPTL4
T26 peptide: SLQTQLKAQNSRIQQ
Procedure: as §1

P28 = target: T27, P28 (human)
T27 construct: linear 15-mer from the N-terminal coiled coil domain of human ANGPTL4
T27 peptide: TQLKAQNSRIQQLFH
Procedure: as §1

P29 = target: T28, P29 (human)
T28 construct: linear 15-mer from the N-terminal coiled coil domain of human ANGPTL4
T28 peptide: KAQNSRIQQLFHKVA
Procedure: as §1

P30 = target: T29, P30 (human)
T29 construct: linear 15-mer from the N-terminal coiled coil domain of human ANGPTL4
T29 peptide: NSRIQQLFHKVAQQQ
Procedure: as §1

P31 = target: T30, P31 (human)
T30 construct: linear 15-mer from the N-terminal coiled coil domain of human ANGPTL4
T30 peptide: IQQLFHKVAQQQRHL
Procedure: as §1

P32 = target: T31, P32 (human)
T31 construct: linear 15-mer from the N-terminal coiled coil domain of human ANGPTL4
T31 peptide: LFHKVAQQQRHLEKQ
Procedure: as §1

P34 = target: T32, P34 (human)
T32 construct: linear 15-mer from the N-terminal coiled coil domain of human ANGPTL4
T32 peptide: QQQRHLEKQHLRIQH
Procedure: as §1

P35 = target: T33, P35 (human)
T33 construct: linear 15-mer from the N-terminal coiled coil domain of human ANGPTL4
T33 peptide: RHLEKQHLRIQHLQS
Procedure: as §1

P36 = target: T34, P36 (human)
T34 construct: linear 15-mer from the N-terminal coiled coil domain of human ANGPTL4
T34 peptide: EKQHLRIQHLQSQFG
Procedure: as §1

P37 = target: T35, P37 (human)
T35 construct: linear 15-mer from the N-terminal coiled coil domain of human ANGPTL4
T35 peptide: HLRIQHLQSQFGLLD
Procedure: as §1

P38 = target: T36, P38 (human)
T36 construct: linear 15-mer from the N-terminal coiled coil domain of human ANGPTL4
T36 peptide: IQHLQSQFGLLDHKH
Procedure: as §1

P39 = target: T37, P39 (human)
T37 construct: linear 15-mer from the N-terminal coiled coil domain of human ANGPTL4
T37 peptide: LQSQFGLLDHKHLDH
Procedure: as §1

P40 = target: T38, P40 (human)
T38 construct: linear 15-mer from the N-terminal coiled coil domain of human ANGPTL4
T38 peptide: QFGLLDHKHLDHEVA
Procedure: as §1

P41 = target: T39, P41 (human)
T39 construct: linear 15-mer from the N-terminal coiled coil domain of human ANGPTL4
T39 peptide: LLDHKHLDHEVAKPA
Procedure: as §1

P42 = target: T40, P42 (human)
T40 construct: linear 15-mer from the N-terminal coiled coil domain of human ANGPTL4
T40 peptide: HKHLDHEVAKPARRK
Procedure: as §1

P43 = target: T41, P43 (human)
T41 construct: linear 15-mer from the N-terminal coiled coil domain of human ANGPTL4
T41 peptide: KHLDHEVAKPARRKR
Procedure: as §1

binding result (P1): no binding | binding result (P2): no binding | binding result (P3): no binding | binding result (P4): no binding | binding result (P5): no binding | binding result (P6): no binding | binding result (P7): no binding | binding result (P8): no binding | binding result (P9): no binding | binding result (P11): no binding | binding result (P12): no binding | binding result (P13): no binding | binding result (P14): no binding | binding result (P15): no binding | binding result (P16): no binding | binding result (P17): no binding | binding result (P18): no binding | binding result (P19): no binding | binding result (P20): no binding | binding result (P21): no binding | binding result (P22): no binding | binding result (P23): no binding | binding result (P24): no binding | binding result (P25): no binding | binding result (P26): no binding | binding result (P27): no binding | binding result (P28): no binding | binding result (P29): no binding | binding result (P30): no binding | binding result (P31): no binding | binding result (P32): no binding | binding result (P34): no binding | binding result (P35): no binding | binding result (P36): no binding | binding result (P37): no binding | binding result (P38): no binding | binding result (P39): no binding | binding result (P40): no binding | binding result (P41): no binding | binding result (P42): no binding | binding result (P43): no binding
B1: NEG276 (antibody, human IgG1, kappa)
heavy: not shown
light: EIVMTQSPATLSVSPGERATLSCKASQDIGSNLNWLQQKPGQAPRRLIYAVSNRGPGIPARFSGSRSGSEYTLTISSLQSEDFAVYYCLQYASSPWTFGQGTKVEIKRTVAAPSVFIFPPSDEQLKSGTASVVCLLNNFYPREAKVQWKVDNALQSGNSQESVTEQDSKDSTYSLSSTLTLSKADYEKHKVYACEVTHQGLSSPVTKSFNRGEC
notes: humanized, hIgG1/kappa, parental antibody 19C16

binding result (P1): no binding | binding result (P2): no binding | binding result (P3): no binding | binding result (P4): no binding | binding result (P5): no binding | binding result (P6): no binding | binding result (P7): no binding | binding result (P8): no binding | binding result (P9): no binding | binding result (P11): no binding | binding result (P12): no binding | binding result (P13): no binding | binding result (P14): no binding | binding result (P15): no binding | binding result (P16): no binding | binding result (P17): no binding | binding result (P18): no binding | binding result (P19): no binding | binding result (P20): no binding | binding result (P21): no binding | binding result (P22): no binding | binding result (P23): no binding | binding result (P24): no binding | binding result (P25): no binding | binding result (P26): no binding | binding result (P27): no binding | binding result (P28): no binding | binding result (P29): no binding | binding result (P30): no binding | binding result (P31): no binding | binding result (P32): no binding | binding result (P34): no binding | binding result (P35): no binding | binding result (P36): no binding | binding result (P37): no binding | binding result (P38): no binding | binding result (P39): no binding | binding result (P40): no binding | binding result (P41): no binding | binding result (P42): no binding | binding result (P43): no binding
B2: NEG318 (antibody, human IgG1, kappa, V domains shown)
VH: QVQLVQSGAEVKKPGASVKVSCKASGYTFTSFWITWVRQAPGQGLEWMGDIYPGGATTNYNEKLQGRVTLTVDTSTSTAYMELRSLRSDDTAVYYCARSPPQVGPFDYWGQGTLVTVSS
VL: DIQMTQSPSSLSASVGDRVTITCQASDYIYHWLAWYQQKPGKAPKLLISGASSLETGVPSRFSGSGSGKDYTFTISSLQPEDIATYYCQQYWSIPWTFGQGTKLEIKR
notes: humanized, hIgG1/kappa, parental antibody 14P18
